From PMC6123785

What was measured:
[1] = biological target: parathyroid hormone receptor 1 BRET-biosensor PTHR1_(Nluc/Halo618) (UniProt Q03431)
PTHR1 wild-type receptor = PTHR1 wild-type receptor (UniProt Q03431)
[2] = biological target: parathyroid hormone receptor 1 BRET-biosensor PTHR1_(Nluc/Halo618) (UniProt Q03431); remark: listed apart in the source

change in intramolecular BRET of the PTHR1 (Nluc/Halo618) sensor in intact cells, 96-well plate, 37 °C, saturating ligand (Fig. 3d); serial dilutions for a concentration-response curve (Fig. 3e) [1]: 10% | Supplementary Figure 6f: pEC50 of PTH(1-34), PTHR1 mediated cAMP response (FRET-based H187-EPAC cAMP sensor co-transfected with the wild-type receptor) (pEC50 (-log M)) (PTHR1 wild-type receptor): 9.52 | Supplementary Figure 6f: pEC50 of PTH(1-34), PTHR1 mediated cAMP response (FRET-based H187-EPAC cAMP sensor co-transfected with the biosensor PTHR1Nluc/Halo) (pEC50 (-log M)) [2]: 7.57
Substance: PTH(1-34) (peptide)
